# Source: patent US20150065376A1, “EXPRESSION CONSTRUCTS ENCODING G PROTEIN COUPLED RECEPTORS AND METHODS OF USE THEREOF” (priority 2013, published 2015)
# Legend:
# Cxcr4b = conditions: value used for graph of free Cxcr4b versus free Sdf1, FIG. S3B; read-out: dissociation constant; cited from earlier work
# [1] = biological target: Cxcr4b-Kate2 fusion protein (zebrafish Sdf1-signaling sensor) (zebrafish); assay: cell-based or functional assay
# [2] = biological target: Cxcr7a (zebrafish CXCR7 ortholog) (zebrafish); assay: cell-based or functional assay
# [3] = biological target: Cxcr7b (zebrafish CXCR7 ortholog) (zebrafish); assay: cell-based or functional assay
# human CXCR4 = biological target: T1, human CXCR4 (Homo sapiens, UniProt P61073); assay: human Sdf1-signaling sensor in Flp-In T-REx 293 cell line (CXCR4-Kate2 internalization); assay type: cell-based; conditions: Flp-In T-REx 293 cells, tetracycline-induced sensor, within 40 minutes, not in vehicle treated controls
# T1 construct: Kate2 (TagRFP2, RFP variant); host or cells: Flp-In T-REx 293 (HEK 293), tetracycline-inducible, cell line number 4
# Text: In order to test whether the human version of the Sdf1-signaling sensor responds to human SDF1 in a similar fashion to that of the fish version of the Sdf1-signaling sensor, the present inventors generated a Flp-In™ T-REx™ 293 cell line that expresses human CXCR4 fused to the RFP variant Kate2 followed by an IRES and a membrane-tethered GFP from a tetracycline-inducible promoter. Because the flippin technology allows one to generate a single copy transgene in a specific genomic location of HEK 293 cells, expression levels from the human Sdf1-signaling sensor are fairly uniform (FIGS. S4A and C).
# Human CXCR4-Kate2-IRES-GFP-CaaX was inserted into the FRT sites in the genome of the Flp-In™ T-REx™ cell line using hygromycin selection (Invitrogen). Five different cell lines were established and cell line number 4 was used to characterize the activity of recombinant human SDF1 on the human Sdf1-signaling sensor. Expression of the human Sdf1-signaling sensor was induced using tetracycline and cells were imaged 24 hours after induction of expression using a Leica SP5 II confocal microscope.
# sdf1a = assay: linearity of the Sdf1-signaling sensor, sdf1a morpholino injection; assay type: in vivo, zebrafish; conditions: increasing amounts of morpholino injected, embryos imaged at 36 hpf, FIG. 3C
# Text: Using ImageJ (NIH), a mask was applied to the GFP channel with a threshold to selectively mark the cell membranes of the cells that comprise the primordium. All values in the GFP and Kate2 channels outside of the mask were discarded and the photon counts from the Kate2 channel were divided by the photon counts from the GFP channel for each voxel to yield a Z-stack in which each value-containing voxel represents the ratio of Kate2 fluorescence to GFP fluorescence on the cell membrane. A custom ImageJ (NIH) macro language script was written in order to automate this analysis. The data was then averaged across the dorsal-ventral axis and placed in 1-micron bins in order to yield 100 data points for still images or 80 data points for time-lapse images that correspond to the first 100 μm or the first 80 μm, respectively, from the front tip of the primordium. […]
# Tg(cxcr4b:cxcr4b-kate2-IRES-memGFP) embryos were injected alternately with 0, 0.5, 1.0 and 1.5 nl of 0.025 mM or 0.1 mM sdf1a morpholino solution (Doitsidou et al., 2002). […] Image collection and gradient quantification were performed as described above. The shift of the Sdf1-signaling gradient was determined by fitting the average ratios to a second order polynomial using the least squares regression in ImageJ (NIH) and extracting the y-intercept. […]
# T1 sequence (P61073 whole entry): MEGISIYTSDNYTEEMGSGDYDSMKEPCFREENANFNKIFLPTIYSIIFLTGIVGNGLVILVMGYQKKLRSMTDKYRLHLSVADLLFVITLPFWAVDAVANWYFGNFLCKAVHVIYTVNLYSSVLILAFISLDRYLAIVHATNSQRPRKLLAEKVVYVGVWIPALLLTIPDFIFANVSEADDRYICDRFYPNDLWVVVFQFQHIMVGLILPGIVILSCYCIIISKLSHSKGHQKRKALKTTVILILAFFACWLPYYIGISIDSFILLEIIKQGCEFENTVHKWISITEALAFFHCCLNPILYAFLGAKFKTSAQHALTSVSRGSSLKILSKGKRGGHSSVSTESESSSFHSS
substance,measurement,setting,value
"Sdf1: chemokine Sdf1, free ligand binding reversibly to Cxcr4b",Kd,Cxcr4b,4 nM
Sdf1a protein (zebrafish chemokine Sdf1a) (ligand),average FmemRed/FmemGreen ratio of the Sdf1-signaling sensor in the absence of Sdf1a protein,[1],2.6
same,average FmemRed/FmemGreen ratio of the Sdf1-signaling sensor upon global Sdf1a over-expression,[1],0.2
same,"mean FmemRed/FmemGreen at the leading edge of wild-type primordia, 36 hpf",[1],< 0.6
same,"mean FmemRed/FmemGreen in the rear of wild-type primordia, 36 hpf",[1],2.3
same,reduction in the local concentration of signaling competent Sdf1a in the rear of the primordium,[2],86%
same,reduction in the steepness of the Sdf1-signaling gradient across the primordium in the absence of cxcr7a activity,[2],31%
same,reduction in the local concentration of signaling competent Sdf1a in the rear of the primordium,[3],86%
same,reduction in the steepness of the Sdf1-signaling gradient across the primordium in the absence of cxcr7b activity,[3],40%
Sdf1a-GFP (Sdf1a fused to green fluorescent protein) (ligand),fraction of total Sdf1a-GFP sequestered in the rear of the primordium,[2],1%
same,fraction of total Sdf1a-GFP sequestered in the rear of the primordium,[3],1%
same,reduction of Sdf1a-GFP protein levels on the stripe outside the primordium upon Cxcr7b over-expression,[3],29%
"recombinant human SDF1: recombinant human chemokine SDF1, ligand of CXCR4",internalization of CXCR4-Kate2 / activation of the human Sdf1-signaling sensor,human CXCR4,induces internalization of CXCR4-Kate2
same,internalization of CXCR4-Kate2 / activation of the human Sdf1-signaling sensor,human CXCR4; listed as Recombinant human SDF1,activates the human version of the Sdf1-signaling sensor
"sdf1a morpholino: translation-blocking morpholino against sdf1a, SEQ ID NO: 69 (Doitsidou et al., 2002) (ATCACTTTGAGATCCATGTTTGCA; all phosphorodiamidate morpholino (PMO))",shift of FmemRed/FmemGreen ratios across the primordium,sdf1a,progressively shifts the FmemRed/FmemGreen ratios across the primordium to higher values
